Data set [1] in a line: ITC titration of folate into the crowders. It counts as binding. On the technique in general: Isothermal titration calorimetry measures the heat released or taken up as one component is titrated into another.
In data set [2] the target is hemoglobin. To be noted: read-out: Kd of folate for central cavity of hemoglobin; cited from earlier work.
For data set [3], the target named is EcDHFR (Escherichia coli, UniProt P0ABQ4). The settings on record: for decrease of kcat, DHF reduction by EcDHFR: crowder at 50 mg/mL.
The target of data set [4] is R67 DHFR (Escherichia coli, UniProt P00383). As to the kind of experiment: Progress curve kinetics, reduction of DHF by R67 DHFR. It counts as biochemical. To be noted: saturating NADPH, progress curves.
For data set [5], the target named is apo-EcDHFR (Escherichia coli, UniProt P0ABQ4). Kind of data set: ITC, NADP+ binding to apo-EcDHFR. Also noted: species or system E. coli.
The target of data set [6] is R67 DHFR-NADP^+ (Escherichia coli, UniProt P00383). As to the kind of experiment: ITC, DHF binding to binary complex of R67 DHFR and NADP+.
Chain of R67 DHFR-NADP^+ (P00383 whole entry): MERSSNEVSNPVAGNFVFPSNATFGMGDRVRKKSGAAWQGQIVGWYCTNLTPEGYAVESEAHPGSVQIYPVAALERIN

Chain of EcDHFR (P0ABQ4 whole entry): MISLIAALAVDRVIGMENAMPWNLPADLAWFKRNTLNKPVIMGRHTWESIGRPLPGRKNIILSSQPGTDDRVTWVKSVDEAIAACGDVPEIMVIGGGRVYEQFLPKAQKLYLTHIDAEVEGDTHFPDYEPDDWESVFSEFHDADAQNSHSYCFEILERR
Chain of apo-EcDHFR (P0ABQ4 whole entry): as above
Chain of R67 DHFR (P00383 whole entry): as the sequence (P00383 whole entry) above

The term Kd denotes the constant that tells how readily two partners part at equilibrium. In the case of `Nc1nc(=O)c2nc(CNc3ccc(C(=O)N[C@@H](CCC(=O)O)C(=O)O)cc3)cnc2[nH]1` [folate], in data set [1], the “heat of binding on titration into the crowders” value is “no heat of binding”. Also, in data set [2], the Kd was about 1000 µM.
Regarding “lysozyme: hen egg-white lysozyme, 14,300 Da, protein crowder”, the “decrease of kcat, DHF reduction by EcDHFR” value in data set [3] is “about 60%”. For the same molecule, the “effect on efficiency (kcat/KM) of R67 DHFR reduction of DHF” value in data set [4] is given as “increases the efficiency”. Besides, the “decrease of affinity of NADP^+ for EcDHFR” value in data set [5] (crowder at 50 mg/mL) came to 5 fold.
As to casein, the “effect on kcat, DHF reduction by EcDHFR” value in data set [3] (over the range of concentrations used) is given as “did not alter the kcat”.
Take “Hemoglobin: bovine hemoglobin, 64,500 Da, protein crowder”: in data set [6] (crowder at 50 mg/mL), the “weakening of R67 DHFR affinity for DHF” value was determined as 5.5 fold.

B1: ovalbumin: protein crowder isolated from fresh eggs (protein, UniProt P01012 2-386, looked up)
Ovalbumin: GSIGAASMEFCFDVFKELKVHHANENIFYCPIAIMSALAMVYLGAKDSTRTQINKVVRFDKLPGFGDSIEAQCGTSVNVHSSLRDILNQITKPNDVYSFSLASRLYAEERYPILPEYLQCVKELYRGGLEPINFQTAADQARELINSWVESQTNGIIRNVLQPSSVDSQTAMVLVNAIVFKGLWEKAFKDEDTQAMPFRVTEQESKPVQMMYQIGLFRVASMASEKMKILELPFASGTMSMLVLLPDEVSGLEQLESIINFEKLTEWTSSNVMEERKIKVYLPRMKMEEKYNLTSVLMAMGITDVFSSSANLSGISSAESLKISQAVHAAHAEINEAGREVVGSAEAGVDAASVSEEFRADHPFLFCIKHIATNAVLFFGRCVSP
Consider B1, for which the “decrease of kcat, DHF reduction by EcDHFR” value in data set [3] is given as “about 60%”. The “effect on affinity of NADP^+ for apo-EcDHFR” value in data set [5] (over the concentration ranges used (up to 150 mg/mL with PVP-55)) was “no effect on affinity”. Moreover, in data set [6] (crowder added, ITC), the “effect on the affinity of R67 DHFR for DHF” value is reported as “little effect”.

The record behind these values is publication PMC6589827 (Biochemistry, 2019).
